Source: article PMC8163506, “A novel ATP dependent dimethylsulfoniopropionate lyase in bacteria that releases dimethyl sulfide and acryloyl-CoA” (eLife, 2021)

Key:
Assay in all cases: DMS production by GC, nonlinear fit of initial rates
Format in all cases: biochemical, Psychrobacter sp.
[1] = substrate: CC(C)(COP(=O)(O)OP(=O)(O)OC[C@H]1O[C@@H](n2cnc3c(N)ncnc32)[C@H](O)[C@@H]1OP(=O)(O)O)[C@@H](O)C(=O)NCCC(=O)NCCS; conditions: co-substrates DMSP and ATP, pH 8.5, 40 °C
[2] = substrate: C[S+](C)CCC(=O)[O-]; conditions: co-substrates ATP and CoA, pH 8.5, 40 °C
[3] = substrate: Nc1ncnc2c1ncn2[C@@H]1O[C@H](COP(=O)(O)OP(=O)(O)OP(=O)(O)O)[C@@H](O)[C@H]1O; conditions: co-substrates DMSP and CoA, pH 8.5, 40 °C

B1: DddX (Psychrobacter sp.) (protein)
chain: LTGQIIEYTIKIQTIYTGNFKHKNGFLKMIERGIAMKKENLKILAKKAQTIAIVGANYRFATRVLLENLDKMDFTGTIYLVNPRYENIDGVRCYQSLLEIEDTIDVVVGLVNPQLMIQVASNASKINAKVLVIPGGGYGESGVEGQNIQNAILERAADSGMRIVGPNCMGYLNMHAQFTPYIGTLHRPLRPIKKGPVSIISQSGSVNDAFIASKLGISKIYSTGNEADVQMHDYLNLLAEDPETSVIILYIEAIRNHLSFLRALDLCSKNKKPVIAIKVGRTIKSAAVANAHSGALAGDYEIEKLFLEGHGVLFVEDIDQAVAVALLLSQPYLPTVNTVAALTVSGGQAGILLDLAEDYGVDFPDFSAVTNYEIASKLPELGGLSNPLDIWGKSSKDFSEVSNICLSSIVKDADIGIITVAIDAPIGQGDHEFDFTSIPAKDLASLRGNSDKPFLYFSHIQTEFDPRVESILDEAGIAVIQGSRNALVACRALFKYKEFLEKNNHTPIYSVEDLSIQKGLKLLHDNEGRKLLDESGFVSPREQVVTSLQEGVDYAESIGYPVVLKAQGLAHKTDVGGVALNIKSAAKLKKAWGKMEHLNSPYYLIQEMVTDGFETILAYRTDMNYGPVVIFGLGGIYTELFNEVVLAVPPITHKKAEQMVKSIPMLWKSIEGYRGNPALDLEALTASIVQMGETAMEKYEEIVEFEINPLSVRVKGVVALDVLASVKTTAAKEADAEEADVKKCSELV
notes: full length (2247 bp gene), pET-22b, C-terminal His tag, E. coli BL21(DE3); dimer in solution
[1]
  Km: 400 µM
[2]
  Km: 400 µM
  kcat: 0.7 s⁻¹
[3]
  Km: 2500 µM
